Key:
[1] = biological target: BK α subunit (mSlo1) pseudo-wild-type with N200C (S3-S4 loop) (mouse); assay: cross-linking
[2] = biological target: BK α subunit (mSlo1) pseudo-wild-type with K296C (S6 flank) (mouse); assay: cross-linking

B1: BK β4 subunit pseudo-wild-type with A43C (TM1 flank), 3X FLAG (natural protein)
chain: MAKLRVAYEYTEAEDKSIRLGLFLIISGVVSLFIFGFAWLSPCLQDLQATEANCTVLSVQQIGEVFECTFTCGADCRGTSQYPCVQVYVNNSESNSRALLHSDEHQLLTNPKCSYIPPCKRENQKNLESVMNWQQYWKDEIGSQPFTCYFNQHQRPDDVLLHRTHDEIVLLHAFLWPLVTFVVGVLIVVLTICAKSLAVKAEAMKKRKFS
Binder B1 has an extent of disulfide crosslinking [1] of 30%.

B2: BK β4 subunit pseudo-wild-type with V169C (TM2 flank), 3X FLAG (natural protein)
chain: MAKLRVAYEYTEAEDKSIRLGLFLIISGVVSLFIFGFAWLSPALQDLQATEANCTVLSVQQIGEVFECTFTCGADCRGTSQYPCVQVYVNNSESNSRALLHSDEHQLLTNPKCSYIPPCKRENQKNLESVMNWQQYWKDEIGSQPFTCYFNQHQRPDDVLLHRTHDEICLLHAFLWPLVTFVVGVLIVVLTICAKSLAVKAEAMKKRKFS
For B2, the extent of disulfide crosslinking [2] was < 30%.
